From article PMC8357241 come the findings set out here.

The data set relates to PARP1. As to the kind of experiment: fluorescence polarization. The note with it: EMSA: 20 mM Hepes pH 7.8, 150 mM NaCl, 2 mM MgCl2, 0.5 mM TCEP, 0.05 mg/ml BSA; TIRF same salts with 1 mg/ml BSA, 1 mg/ml beta-casein, 500 nM SYTOX Orange …. (Fluorescence polarisation rises when a labelled molecule tumbles more slowly, as on binding a larger partner.)

For DNA dumbbell containing a SSB, the Kd (commonly the concentration at which binding is half-saturated) came to 71 nM.
